Experiment [1] concerns the target pT18c-Zip (leucine zipper fragment encoded by control plasmid pUT18C-zip). In words: two-hybrid; bacterial adenylate cyclase two-hybrid (BACTH) in cya- E. coli BTH101; bait RbaW, preys in pKNT25 or pKT25; β-galactosidase activity (units mg^-1 dry weight) of 3 replicate co-transformants.
In experiment [2] the target is pT18c-RbaW (RbaW in BACTH vector pUT18c) (Rhodobacter capsulatus). Described as above.

The results in this text go back to publication PMC3999984.

For the substance “KT-Zip (leucine zipper fragment encoded by control plasmid pKT25-zip) (domain or fragment)”, the β-galactosidase activity in experiment [1] came out at 7340 units mg^-1.

As for “pKNT25-RbaV (RbaV in BACTH vector pKNT25) (natural protein)”, in experiment [2], the β-galactosidase activity was 1440 units mg^-1.
